Columns and labels:
[1] = molecular target: T1, human PILRA, c-term His-Avi tag (human, UniProt Q9UKJ1 20-197, limits assumed); assay: SPR (Biacore), antibody captured, PILRA as analyte
T1 construct: not shown: C-terminal His-Avi tag
In short: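 Antibodies were captured at 10 μg/ml on an anti-huFc or anti-msFc CM5 surface, and human PILRA was flowed at 33, 100 and 300 nM in HBSTE/0.5% BSA, pH 7.4. The surface was regenerated with 10 mM glycine-HCl, pH 2.1, after each analyte. Curves were double-referenced with buffer injections.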

[2] = molecular target: T2, PILRA Fc (soluble human PILRA) (human, UniProt Q9UKJ1 20-197, limits assumed); assay: flow cytometry blocking assay, graph 'V1 Blocking_CD3+T Donor 906': antibody mixed with PILRA-Fc, then human CD3+ T cells; bound PILRA-Fc detected with AF647 2nd Ab; blocked partner: PILRA ligand on the T cells
T2 construct: also called soluble PILRA; not shown: Fc part, detected with anti-human IgG
Method: The ability of conditioned media samples containing antibodies to inhibit the binding of PILRA Fc to human CD3+ T cells was assessed. Briefly, conditioned media samples containing antibodies were incubated with 1.25 ug/ml PILRA Fc for 30 min at 4° C. and then added to human T cells. After 30 minutes incubation at 4° C., cells were washed, and bound PILRA Fc was detected with anti-human IgG Alexa 647. Cells were analyzed by flow cytometry on FACS Canto II, and for all cell lines, the amount of PILRA Fc binding (MIFI) and the percentage of PILRA Fc binding in the presence of conditioned media relative to PILRA Fc binding alone was calculated. Several antibodies inhibited binding of PILRA Fc to human T cells, and a few antibodies enhanced PILRA-Fc binding to T cells. Antibodies that show enhancement in this assay may block cis inhibition to promote trans interactions or may allosterically activate to enhance trans interactions without blocking cis.

[3] = molecular target: T3, human PILRA, G78 variant, ectopically expressed on 293 cells (human, UniProt Q9UKJ1 20-303); assay: screening summary, TCP groups
T3 construct: the cells are labelled G78; also called hA G78 OE; hA

[4] = molecular target: cynomolgus PILRA, ectopically expressed on 293 cells (cynomolgus monkey); assay: screening summary, TCP groups
Sequence of cynomolgus PILRA, ectopically expressed on 293 cells (cynomolgus monkey) (chain, as listed by the source): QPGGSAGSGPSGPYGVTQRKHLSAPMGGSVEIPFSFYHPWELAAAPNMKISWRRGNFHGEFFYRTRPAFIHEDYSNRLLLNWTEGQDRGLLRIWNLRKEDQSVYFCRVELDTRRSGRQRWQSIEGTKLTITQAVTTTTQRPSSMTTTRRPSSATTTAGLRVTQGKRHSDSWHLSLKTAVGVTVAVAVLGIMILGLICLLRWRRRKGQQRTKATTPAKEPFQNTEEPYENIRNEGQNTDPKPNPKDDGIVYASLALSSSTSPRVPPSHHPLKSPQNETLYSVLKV

T1 sequence (Q9UKJ1 20-197 limits assumed): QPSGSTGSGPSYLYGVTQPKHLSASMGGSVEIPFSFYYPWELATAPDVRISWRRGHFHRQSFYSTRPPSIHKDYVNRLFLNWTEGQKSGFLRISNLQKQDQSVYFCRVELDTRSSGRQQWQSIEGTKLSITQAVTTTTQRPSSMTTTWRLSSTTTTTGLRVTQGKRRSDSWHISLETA
T2 sequence (Q9UKJ1 20-197 limits assumed): as above
T3 sequence (Q9UKJ1 other isoform, or with tags, fused parts or gaps mutant): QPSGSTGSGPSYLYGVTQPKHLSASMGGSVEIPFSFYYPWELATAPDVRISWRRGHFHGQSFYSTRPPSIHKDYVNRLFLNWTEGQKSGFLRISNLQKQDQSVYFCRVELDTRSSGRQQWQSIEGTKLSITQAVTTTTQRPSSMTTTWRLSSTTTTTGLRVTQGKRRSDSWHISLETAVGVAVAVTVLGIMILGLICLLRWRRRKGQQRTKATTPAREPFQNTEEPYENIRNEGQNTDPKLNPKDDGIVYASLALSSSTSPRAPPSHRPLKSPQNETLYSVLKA

| Kd [1] [nM] | koff [1] [s⁻¹] | kon [1] [M⁻¹ s⁻¹] | t½ [1] [min] | IC50 (read off the curve) [2] [µg/mL] | binding result [3] | binding result [1] | binding result [4] | Binder |
| --- | --- | --- | --- | --- | --- | --- | --- | --- |
| 7 | 0.0015 | 210000 | 7.9 | ~3 |  |  |  | hPA-005 (antibody, V domains shown) VH: QVILKESGPGILQSSQTLSLTCSFSGFSLSTFGMGVGWIRQPSGKGLESLAHIWWDDDKFYNPALKSRLTISKDTSKSQVFLKIANVDTADIATYYCTRIEDYGSYFAYWGQGTTLTVSS VL: DVQMNQSPSSLSASLGDPITITCHASQNIHVWLNWYQQRPGNIPRLLIYKASNLHTGVPSRFSGSGSGTGFTLTISSLQPEDIATYYCQQGQSYPYTFGGGTKLEIK |
| 8.3 | 0.0042 | 510000 | 2.7 |  |  |  | binds | C3 (antibody, V domains shown, first hybridoma campaign) VH: EVHLQQSGPELVKPGASVKISCKASGYTFTDYYLNWVKLSLGKSLEWIGDINPNDGDTSYNQTFKGKATLTVDKSSSTAYMELRSLTSEDSAVYYCARRASSYYSNYGWYFDVWGTGTTVTVSS VL: DILLTQSPAILSVSPGERVSFSCRASQSIGTSIHWYQQRTNGSPRLLIKFASESISGIPSRFSGSGSGTDFTLSINTVESEDIGDYYCQESNSWPTTFGAGTKLELK |

The remaining lines, values behind:

| Binder | Kd [1] [nM] | koff [1] [s⁻¹] | kon [1] [M⁻¹ s⁻¹] | t½ [1] [min] | IC50 (read off the curve) [2] [µg/mL] | binding result [3] | binding result [1] | binding result [4] |
| --- | --- | --- | --- | --- | --- | --- | --- | --- |
| hPA-004 (antibody, V domains shown) VH: QVTLKESGPGMLQPSQTLSLACSFSGFSLNSFGVAVGWIRQPSGKGLEWLAHIWWDDDKSYNPALKSRLTISKDTSKNQVFLKLANVDTADTATYYCTRIADYGNHFDYWGQGTALTVSS VL: DIQMNQSPSSLSASLGDTITITCHASQNSHVWLSWYQQKPGNIPKLLIYKASNLHTGVPSRFSGSGSGTGFTLTISGLQPEDIATYYCQQGQTYPFTFGSGTKLEIK | 9 | 0.0011 | 130000 | 10.1 | ~3 |  |  |  |
| D9 (antibody, V domains shown, second hybridoma campaign) VH: QVQLKESGPGLVAPSQSLSITCSVSGFSLSSYAINWVREPPGKGLEWLGVIWTGGGTNYNSALKSRLSISKDNSKSQVFLKMNSLQTDDTARYYCARNSIYYDYDGFAYWGQGTLVTVSA VL: DIQMTQSSSYLSVSLGGRVTITCKASDHINNWLAWYQQKPGNAPRLLISGATSLETGVPSRFSGSGSGKDYTLSITSLQTEDFTTYYCQQYWSTPYTFGGGTKLEIK |  |  |  |  |  | binds |  |  |
| B3 (antibody, V domains shown, B-cell cloning campaign (mice)) VH: EVKLVESGGGLVKPGGSLKLSCTASGFTFSNYAMSWVRQTPEKRLEWVASISGGGSTYYPDSVKGRFTIAIDYARNILYLQMSSLRSEDTAIYFCTRGVSYGDYAMDYWGQGTSVTVSS VL: ETTVTQSPASLSMAIGEKVTIRCVTSTDIDDDMNWYQQKPGGPPKLLISEGNTLRPGVPSRFSSSGYGSDFVFTIEDMLSEDVADYYCLQSDNLPLTFGAGTKVELK |  |  |  |  |  |  | no binding (tested: 33, 100, and 300 nM) | binds |
| B4 (antibody, V domains shown, B-cell cloning campaign (mice)) VH: EVKLVESGGGLVKPGGSLKLSCTASGFTFSNYAMSWVRQTPEKRLEWVASISGGGSTYYPDSVKGRFTIAIDYARNILYLQMSSLRSEDTAIYYCTRGVSYGDYAMDYWGQGTSVTVSS VL: ETTVTQSPASLSMAIGEKVTIRCVTSTDIDDDMNWYQQKPGGPPKLLISEGNTLRPGVPSRFSSSGYGSDFVFTIEDMLSEDVADYYCLQSDNLPLTFGAGTKVELK | 88.3 | 0.00054 | 6100 | 21.4 |  |  |  | binds |
